In publication PMC3805550:

Molecular target: F-actin from chicken pectoral (skeletal) muscle (chicken) (UniProt P68139)
Assay: co-sedimentation; 5 uM F-actin with 0.1-6 uM AS-Cdc8p, 20 mM MOPS pH 7.0, 150 mM NaCl, 2 mM MgCl2, 20 C, 60,000 rpm 30 min; pellets and supernatants on SDS-PAGE, densitometry; Hill equation fit, apparent constant (Kapp)

Question: Which Ka does the source give for “AS-Cdc8p wildtype (Ala-Ser-Cdc8p, S. pombe tropomyosin with AlaSer at the N terminus) (natural protein)” here?
Answer: 6.3e+06 M⁻¹
